Data taken from the emibetuzumab library of Makowski et al. (2022).

B1: VH:VL chains; a variant is named by its letters at X, in order (parent)
chain 1: QVQLVQSGAEVKKPGASVKVSCKASGYTFTDYXMHWVRQAPGQGLEWMGXVNPNXXXTTYNQKFEGRVTMTTDTSTSTAYMELRSLRSDDTAVYYCARXNXLDXWGQGTTVTVSS
chain 2: DIQMTQSPSSLSASVGDRVTITCSVSSSVSSIYLHWYQQKPGKAPKLLIYSTSNLASGVPSRFSGSGSGTDFTLTISSLQPEDFATYYCQVYSGYPLTFGGGTKVEIK

Variants of: B1
Experiment: yeast display scFab, FACS + sequencing
How it was run: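 For the non-specific binding call, a heavy-chain CDR mutant scFab library on the yeast surface was FACS-sorted and samples from two replicates were deep sequenced. Cells were labelled with anti-Myc and either biotinylated ovalbumin (260 μg/mL in PBSB, 3 h, room temperature) or soluble membrane proteins (130 μg/mL, 20 min on ice), with gates on the top 25% and bottom 10% of binders. With membrane protein and ovalbumin samples pooled, a sequence in ≥3 of 4 positive samples and no negatives was scored positive, and the converse rule scored negatives.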

Row | Variant | non-specific binding call
1 | DAARGAGD | no binding
2 | YAAETDVF | no binding
3 | YAARAAVD | binds
4 | VAEKGSSA | no binding
5 | VAETAAAA | no binding
6 | YAGGDDAA | no binding
7 | YAGGDDAV | no binding
8 | YAATADSS | no binding
9 | YAGGAYLY | no binding
10 | SAEATDLY | no binding
11 | DAARGDAA | no binding
12 | DAARGDAV | no binding
13 | YAGEGFGV | no binding
14 | VAAAGAAV | no binding
15 | FAEGAAAV | no binding
16 | YAEESSSA | no binding
17 | VAGGGAAV | no binding
18 | VAARGAAV | no binding
19 | DAGGADAV | no binding
20 | DAGGADAY | no binding
21 | FAAAGFVA | binds
22 | VAGGDDWV | no binding
23 | FAGGGASD | no binding
24 | VAEKGDVF | no binding
25 | DAEESDGA | no binding

Row | Variant | non-specific binding call
26 | DAGAAAGD | no binding
27 | DAEATSLV | no binding
28 | DAATADSS | no binding
29 | DAGGAAGV | no binding
30 | DAGGAAGD | no binding
31 | DAGGDDGA | no binding
32 | YAEESDVA | no binding
33 | SAGEGDGV | no binding
34 | YAGEGDGA | no binding
35 | DAAGASVD | no binding
36 | DAEATDVA | no binding
37 | VAEKGALA | no binding
38 | DAGEGFVA | no binding
39 | YAAGSDVY | no binding
40 | YAAGASVD | no binding
41 | FAATDSVS | binds
42 | DAEKDSGA | no binding
43 | DAGEASAV | no binding
44 | YAEEGVGY | binds
45 | SAGGGAWV | no binding
46 | FAEGASSS | no binding
47 | YAGGDSGV | no binding
48 | YAEGASSF | no binding
49 | VAAKNDGA | no binding
50 | VAGGAYLY | no binding

Row | Variant | non-specific binding call
51 | DAARGDVV | no binding
52 | DAAGADWY | no binding
53 | VAGGDAGV | no binding
54 | SAAGADWS | no binding
55 | YAARGAWD | binds
56 | FAGGDYGS | binds
57 | DAERTDGV | no binding
58 | FAGGGDGA | no binding
59 | DAEKGAWA | no binding
60 | DAATAYGS | binds
61 | YAARASGF | binds
62 | DAEATDGA | no binding
63 | VAATADVA | no binding
64 | DAGGDAGD | no binding
65 | SAGEGDVF | no binding
66 | SAGEGDVY | no binding
67 | FAAGGAWA | binds
68 | FAGGGDAV | no binding
69 | FAAETDVF | no binding
70 | SAAGGDGV chain 1 L45S | no binding
71 | VAEATDLY | no binding
72 | VAEKDDGS | no binding
73 | DAARAVSS | binds
74 | YAEESAGD | no binding
75 | SAGGDYVF | no binding

Row | Variant | non-specific binding call
76 | YAAGSFGY | binds
77 | DAGGADWA | no binding
78 | SAAGGDVA chain 1 L45S | no binding
79 | DAGGAAAV | no binding
80 | DAGGAAAD | no binding
81 | DAGGAAAA | no binding
82 | YAGGDDSA | no binding
83 | DAAGAAGV | no binding
84 | FAEGSYAF | binds
85 | FAARSYGD | binds
86 | VAGAGAGA | no binding
87 | FAARDSGA | no binding
88 | VAEKGDGA | no binding
89 | VAEKGDGV | no binding
90 | FAAGSYAV | binds
91 | FAAKTAAA | binds
92 | YAARGSAA | binds
93 | VAGGDDGA | no binding
94 | VAGGDDGF | no binding
95 | DAGGGAVY | no binding
96 | DAGGGAVV | no binding
97 | DAGGGAVA | no binding
98 | YAAAAFGY | binds
99 | DAEGDAGD | no binding
100 | YAEESSAD | no binding

Row | Variant | non-specific binding call
101 | VAGAGDVV | no binding
102 | SAEGGSSA | no binding
103 | YAGAGSAD | no binding
104 | DAGGADVA | no binding
105 | DAGGADVY | no binding
106 | AAEGGYAV | binds
107 | SAARDFWV | no binding
108 | YAAGGFAY | binds
109 | DAGGASLD | no binding
110 | DAGAADGA | no binding
111 | DAETAAAA | no binding
112 | DAGEAAGD | no binding
113 | DAEEDAGY | no binding
114 | VAGGDAVV | no binding
115 | VAGGDAVA | no binding
116 | FAGEGAGV | no binding
117 | VAGGDDAV | no binding
118 | YAEKDAGD | no binding
119 | DAGGGDAV | no binding
120 | YAGGGDGA | no binding
121 | AAGGDYVF | no binding
122 | DAGGASGV | no binding
123 | DAEGDDGA | no binding
124 | DAEGGSLD | no binding
125 | YAARAALD | binds

Row | Variant | non-specific binding call
126 | DAARGDSA | no binding
127 | VAEKGSGA | no binding
128 | VAARGDAA | no binding
129 | DAERDSGV | no binding
130 | VAARGFGS | no binding
131 | DAGGDDVY | no binding
132 | FAAGSSGS | binds
133 | SAARDAVA | no binding
134 | YAEATDLY | no binding
135 | VAATADAV | no binding
136 | YAEESSGV | no binding
137 | DAGGASSS | no binding
138 | DAGGASSV | no binding
139 | DAGGASSA | no binding
140 | VAGGDALD | no binding
141 | FAEGDDVV | no binding
142 | FAEGDDVA | no binding
143 | FAEGDDVY | no binding
144 | FAARAFGV | binds
145 | FAAGGAAS | binds
146 | VAATASWV | no binding
147 | DAGAADAV | no binding
148 | FAEGAAGD | no binding
149 | SAAGGAGA chain 1 L45S | no binding
150 | FAAGGSGD | binds

Row | Variant | non-specific binding call
151 | DAGGADGV | no binding
152 | AAEKDDLA | no binding
153 | AAAGGSWS | binds
154 | DAGGAAVS | no binding
155 | DAGGAAVA | no binding
156 | SAERSAAF | no binding
157 | AAARNFLF chain 1 V68I | binds
158 | SAEEDDVY | no binding
159 | VAEKGDLS | no binding
160 | SAAGGAAV chain 1 L45S | no binding
161 | VAGAGYGA | binds
162 | YAGAAAVD | binds
163 | VAGGGAGV | no binding
164 | FAGGGAGS | no binding
165 | FAGGGAGA | no binding
166 | VAEGGYAV | binds
167 | SAAGGAAD chain 1 L45S | no binding
168 | FAEGDDSA | no binding
169 | YAGGDFAY | no binding
170 | YAEESDWV | no binding
171 | YAGETFGA | binds
172 | VAAKSAAA chain 1 R38K | no binding
173 | VAEGDAAD | no binding
174 | VAGGDFGV | no binding
175 | VAEKGAGD | no binding

Row | Variant | non-specific binding call
176 | DAAKNDAV | no binding
177 | VAGGDDVA | no binding
178 | VAGGDDVF | no binding
179 | DAGGGAAV | no binding
180 | SAGGGAGD | no binding
181 | SAEKDDGS | no binding
182 | VAEEDAGY | no binding
183 | VAATGVSD | binds
184 | YAGEASAV | no binding
185 | YAGGDDGA | no binding
186 | YAAGSSWD | binds
187 | VAEAAVGD | binds
188 | VAEKGDWY | no binding
189 | YAAKTAAA | binds
190 | VAATAAGA | no binding
191 | YAEESDGS | no binding
192 | SAGEGSLV | no binding
193 | YAEGDAAD | no binding
194 | SAAGSVWY | no binding
195 | VAGGDYLV | no binding
196 | VAGGDAAA | no binding
197 | YAEKDFGV | no binding
198 | VAEKGFLV | binds
199 | DAEATSWV | no binding
200 | DAGAADVV | no binding

Row | Variant | non-specific binding call
201 | YAGAGAVY | no binding
202 | SAEGDAAD | no binding
203 | YAARGAAV | binds
204 | YAAGGDGV | no binding
205 | DAARGSSV | no binding
206 | VAEKGDAA | no binding
207 | YAAGGDVA | no binding
208 | YAAKSDGY | binds
209 | DAGGGAGD | no binding
210 | VAEKGFGA | no binding
211 | SAAGGASD chain 1 L45S | no binding
212 | DAARGAAA | no binding
213 | SAGEGDWV | no binding
214 | VAERSFGV | binds
215 | DAGEAFSF | no binding
216 | AAEGDAAD | no binding
217 | YAAKNDGA | no binding
218 | DAARGDGV | no binding
219 | DAARGDGA | no binding
220 | YAEGGYGV chain 1 V68I | binds
221 | VAATADSS | no binding
222 | VAGAGDSV | no binding
